From PMC3020774 (The Journal of Biological Chemistry, 2010)

B3: recombinant ZHD5-MBP fusion protein (natural protein)
chain: MDMRSHEMIERRREDNGNNNGGVVISNIISTNIDDNCNGNNNNTRVSCNSQTLDHHQSKSPSSFSISAAAKPTVRYRECLKNHAASVGGSVHDGCGEFMPSGEEGTIEALRCAACDCHRNFHRKEMDGVGSSDLISHHRHHHYHHNQYGGGGGRRPPPPNMMLNPLMLPPPPNYQPIHHHKYGMSPPGGGGMVTPMSVAYGGGGGGAESSSEDLNLYGQSSGEGAGAAAGQMAFSMSSSKKRFRTKFTTDQKERMMDFAEKLGWRMNKQDEEELKRFCGEIGVKRQVFKVWMHNNKNNAKKPPTPTTTL

Assays:
ZHD5-MBP = molecular target: T1, ZHD5-MBP (UniProt Q9FRL5 1-309); test: EMSA
T1 sequence: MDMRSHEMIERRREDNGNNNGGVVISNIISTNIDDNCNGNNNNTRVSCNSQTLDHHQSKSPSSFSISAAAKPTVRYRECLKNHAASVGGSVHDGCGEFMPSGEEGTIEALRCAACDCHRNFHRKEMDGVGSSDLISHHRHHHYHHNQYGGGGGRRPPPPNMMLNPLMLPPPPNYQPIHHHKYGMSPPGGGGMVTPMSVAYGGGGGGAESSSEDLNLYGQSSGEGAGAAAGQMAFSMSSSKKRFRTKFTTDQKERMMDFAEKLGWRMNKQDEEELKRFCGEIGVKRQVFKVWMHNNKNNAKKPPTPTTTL

[1] = molecular target: B3; test: native gel or EMSA
native gel or EMSA = molecular target: the molecule itself; test: native gel or EMSA

B1: ATTA EMSA probe (dsDNA)
DNA 1: CAGTGTCTTGTAATTAAAAA
DNA 2: TTTTTAATTACAAGACACTG
binding result (ZHD5-MBP): binds

B2: recombinant MIF1-GST fusion protein (natural protein)
chain: MMKKRQMVIKQRSRNSNTSSSWTTTSSSSSSSEISNVRYVECQKNHAANIGGYAVDGCREFMAAGVEGTVDALRCAACGCHRNFHRKEVDTEVVCEYSPPNA
binding result [1]: binds

B3
binding result (native gel or EMSA): binds
